Experimental data reported in patent publication US20050244868A1.

Key:
[1] = biological target: CG55069 (Ten-M3), endogenous on human tumour, lymphoma and leukemia cell lines (human) (UniProt Q9P273); test: flow cytometry on SR cells, negative control antibody
[2] = biological target: CG55069 (Ten-M3), endogenous on human tumour, lymphoma and leukemia cell lines (human) (UniProt Q9P273); test: flow cytometry on DEL cells, negative control antibody
[3] = biological target: CG55069 (Ten-M3), endogenous on human tumour, lymphoma and leukemia cell lines (human) (UniProt Q9P273); test: flow cytometry on MOLT-4 cells, negative control antibody
[4] = biological target: CG55069 (Ten-M3), endogenous on human tumour, lymphoma and leukemia cell lines (human) (UniProt Q9P273); test: flow cytometry on MV4-11 cells, negative control antibody
[5] = biological target: CG55069 (Ten-M3), endogenous on human tumour, lymphoma and leukemia cell lines (human) (UniProt Q9P273); test: flow cytometry on SUP-M2 cells, negative control antibody
[6] = biological target: CG55069 (Ten-M3), endogenous on human tumour, lymphoma and leukemia cell lines (human) (UniProt Q9P273); test: flow cytometry on CCRF-CEM cells, negative control antibody
[7] = biological target: CG55069 (Ten-M3), endogenous on human tumour, lymphoma and leukemia cell lines (human) (UniProt Q9P273); test: flow cytometry on SU-DHL-4 cells, negative control antibody
[8] = biological target: CG55069 (Ten-M3), endogenous on human tumour, lymphoma and leukemia cell lines (human) (UniProt Q9P273); test: flow cytometry on Karpas 299 cells, negative control antibody

Sequence of UniProt Q9P273 (Q9P273 other isoform, or with tags, fused parts or gaps): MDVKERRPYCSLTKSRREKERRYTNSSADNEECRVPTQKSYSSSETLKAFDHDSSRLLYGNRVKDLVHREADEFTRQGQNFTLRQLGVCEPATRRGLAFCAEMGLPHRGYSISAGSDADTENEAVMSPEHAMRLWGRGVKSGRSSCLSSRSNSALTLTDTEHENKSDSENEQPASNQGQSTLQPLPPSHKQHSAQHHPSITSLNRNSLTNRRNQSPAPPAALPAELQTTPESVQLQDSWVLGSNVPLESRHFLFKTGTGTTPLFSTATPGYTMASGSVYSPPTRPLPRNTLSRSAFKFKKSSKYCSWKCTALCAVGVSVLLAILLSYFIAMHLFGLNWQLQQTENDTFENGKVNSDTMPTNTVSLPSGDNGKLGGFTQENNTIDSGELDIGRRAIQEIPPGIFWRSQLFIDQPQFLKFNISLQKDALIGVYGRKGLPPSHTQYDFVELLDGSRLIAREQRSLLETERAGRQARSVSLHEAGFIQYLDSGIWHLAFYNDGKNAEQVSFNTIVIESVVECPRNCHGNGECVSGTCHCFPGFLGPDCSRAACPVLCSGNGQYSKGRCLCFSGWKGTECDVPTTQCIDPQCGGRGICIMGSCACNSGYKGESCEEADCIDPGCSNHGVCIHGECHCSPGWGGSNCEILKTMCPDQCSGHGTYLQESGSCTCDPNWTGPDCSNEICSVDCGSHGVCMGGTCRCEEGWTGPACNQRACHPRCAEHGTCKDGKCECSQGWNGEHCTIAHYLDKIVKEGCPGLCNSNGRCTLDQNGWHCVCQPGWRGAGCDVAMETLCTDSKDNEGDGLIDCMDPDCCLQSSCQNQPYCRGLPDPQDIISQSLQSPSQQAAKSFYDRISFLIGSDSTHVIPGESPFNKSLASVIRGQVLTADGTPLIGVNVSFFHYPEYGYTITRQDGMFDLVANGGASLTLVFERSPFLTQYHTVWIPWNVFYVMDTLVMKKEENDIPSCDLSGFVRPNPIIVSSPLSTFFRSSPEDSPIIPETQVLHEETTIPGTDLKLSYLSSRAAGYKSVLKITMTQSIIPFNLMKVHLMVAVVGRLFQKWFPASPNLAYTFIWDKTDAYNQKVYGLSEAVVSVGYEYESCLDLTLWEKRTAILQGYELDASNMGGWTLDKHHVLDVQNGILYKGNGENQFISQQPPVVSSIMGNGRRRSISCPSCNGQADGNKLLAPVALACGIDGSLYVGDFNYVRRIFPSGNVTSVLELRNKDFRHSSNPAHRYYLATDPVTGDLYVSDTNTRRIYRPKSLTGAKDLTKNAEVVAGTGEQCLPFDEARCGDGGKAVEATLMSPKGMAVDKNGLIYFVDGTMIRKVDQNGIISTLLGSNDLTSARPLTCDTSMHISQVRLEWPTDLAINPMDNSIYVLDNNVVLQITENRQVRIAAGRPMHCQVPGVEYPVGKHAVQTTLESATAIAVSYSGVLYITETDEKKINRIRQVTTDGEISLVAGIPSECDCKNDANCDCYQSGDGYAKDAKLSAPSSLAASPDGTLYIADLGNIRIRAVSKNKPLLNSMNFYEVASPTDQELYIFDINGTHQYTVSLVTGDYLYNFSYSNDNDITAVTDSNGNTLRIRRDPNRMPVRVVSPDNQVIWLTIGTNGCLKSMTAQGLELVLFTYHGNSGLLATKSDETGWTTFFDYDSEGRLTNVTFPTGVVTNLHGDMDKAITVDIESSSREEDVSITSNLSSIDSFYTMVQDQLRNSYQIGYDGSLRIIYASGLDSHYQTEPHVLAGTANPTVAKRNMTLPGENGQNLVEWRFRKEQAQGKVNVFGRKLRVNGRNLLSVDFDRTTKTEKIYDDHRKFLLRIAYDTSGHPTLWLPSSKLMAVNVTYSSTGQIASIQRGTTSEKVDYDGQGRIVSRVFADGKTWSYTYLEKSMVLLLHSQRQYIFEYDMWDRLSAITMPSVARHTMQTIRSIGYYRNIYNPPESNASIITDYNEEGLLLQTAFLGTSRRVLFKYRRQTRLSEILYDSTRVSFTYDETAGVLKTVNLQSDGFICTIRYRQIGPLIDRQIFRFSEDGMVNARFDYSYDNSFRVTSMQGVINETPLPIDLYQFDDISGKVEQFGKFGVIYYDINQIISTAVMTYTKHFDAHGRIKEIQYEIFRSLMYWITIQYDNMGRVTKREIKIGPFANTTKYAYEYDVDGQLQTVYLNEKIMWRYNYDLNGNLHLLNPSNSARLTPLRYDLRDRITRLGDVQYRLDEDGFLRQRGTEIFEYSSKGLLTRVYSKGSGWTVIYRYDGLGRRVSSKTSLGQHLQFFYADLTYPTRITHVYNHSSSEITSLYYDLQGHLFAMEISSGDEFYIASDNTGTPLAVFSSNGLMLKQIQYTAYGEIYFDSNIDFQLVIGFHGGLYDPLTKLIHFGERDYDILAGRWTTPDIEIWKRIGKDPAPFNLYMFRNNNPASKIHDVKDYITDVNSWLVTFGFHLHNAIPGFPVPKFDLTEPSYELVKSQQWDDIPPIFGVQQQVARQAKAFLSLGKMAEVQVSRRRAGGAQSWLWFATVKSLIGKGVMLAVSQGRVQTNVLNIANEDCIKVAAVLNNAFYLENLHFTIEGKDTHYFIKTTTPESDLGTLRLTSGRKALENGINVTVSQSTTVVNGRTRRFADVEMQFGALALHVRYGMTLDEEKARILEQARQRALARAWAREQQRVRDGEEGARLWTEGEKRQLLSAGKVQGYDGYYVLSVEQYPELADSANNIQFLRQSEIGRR

With Rabbit negative (control antibody) the Geo Mean Ratio [1] was 4.29, the Geo Mean Ratio [2] was 7.41 and the Geo Mean Ratio [3] was 4.13. It also gave a Geo Mean Ratio [4] of 90.7, a Geo Mean Ratio [5] of 6.13 and a Geo Mean Ratio [6] of 4.22. For the same substance, the Geo Mean Ratio [7] was 2.38 and the Geo Mean Ratio [8] was 5.08.
